Data from patent publication US20230357447A1 (JANUX THERAPEUTICS, published 2023).

How the values were obtained:
[1] = target: T1, anti-CD28 scFv (VH-linker 1-VL) (biotinylated (site not stated)); test: phage ELISA; biotinylated scFv on neutravidin plate; anti-M13-HRP;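 note: crude clonal phage supernatant added to wells pre-incubated with soluble CD28 protein or only blocking buffer, then washed, bound phage read out with an HRP-linked anti-M13 antibody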
T1 construct: Captured as biotinylated scFv on neutravidin coated plates in the phage ELISA
T1 sequence (scFv, as listed by the source): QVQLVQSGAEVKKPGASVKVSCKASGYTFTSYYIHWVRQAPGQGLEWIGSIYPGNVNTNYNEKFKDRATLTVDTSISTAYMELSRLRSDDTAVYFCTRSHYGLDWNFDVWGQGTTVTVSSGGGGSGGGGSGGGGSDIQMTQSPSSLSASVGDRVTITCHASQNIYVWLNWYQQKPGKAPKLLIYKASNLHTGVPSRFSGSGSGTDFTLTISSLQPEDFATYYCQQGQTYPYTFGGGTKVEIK

[2] = target: T1, anti-CD28 scFv (VH-linker 1-VL); test: phage ELISA; scFv wells pre-incubated with soluble CD28 (competitor);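 note: crude clonal phage supernatants added to wells pretreated with soluble CD28 in blocking buffer, bound phage read via HRP-linked anti-M13 antibody, reference wells got blocking buffer only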

MDWCPKHLWNKCFN (on phage (pIII fusion)) [Phage-246 clonal phage peptide]
CD28 scFv signal [1]: 1.16
CD28 scFv signal in presence of CD28 [2]: 0.092

MDWCPRNMWHHCFD (on phage (pIII fusion)) [Phage-248 clonal phage peptide]
CD28 scFv signal [1]: 1.6
CD28 scFv signal in presence of CD28 [2]: 0.524

MDWCPPYLWSECFA (on phage (pIII fusion)) [Phage-238 clonal phage peptide]
CD28 scFv signal [1]: 2.6
CD28 scFv signal in presence of CD28 [2]: 0.234

MDWCPRYLWSECFA (on phage (pIII fusion)) [Phage-254 clonal phage peptide]
CD28 scFv signal [1]: 2.71
CD28 scFv signal in presence of CD28 [2]: 0.513

MDWCPKHLWTECFA (on phage (pIII fusion)) [Phage-242 clonal phage peptide]
CD28 scFv signal [1]: 2.49
CD28 scFv signal in presence of CD28 [2]: 0.145

MDWCPRFMWAECFN (on phage (pIII fusion)) [Phage-247 clonal phage peptide]
CD28 scFv signal [1]: 2.6
CD28 scFv signal in presence of CD28 [2]: 0.341

MDWCPIHLWNECFN (on phage (pIII fusion)) [Phage-314 clonal phage peptide]
CD28 scFv signal [1]: 2.35
CD28 scFv signal in presence of CD28 [2]: 0.157

MDWCPSDMWAHCYN (on phage (pIII fusion)) [Phage-249 clonal phage peptide]
CD28 scFv signal [1]: 1.21
CD28 scFv signal in presence of CD28 [2]: 0.109

MDWCPRHLWHECYS (on phage (pIII fusion)) [Phage-241 clonal phage peptide]
CD28 scFv signal [1]: 2.58
CD28 scFv signal in presence of CD28 [2]: 0.374

MDWCPRNLWHLCFA (on phage (pIII fusion)) [Phage-245 clonal phage peptide]
CD28 scFv signal [1]: 1.4
CD28 scFv signal in presence of CD28 [2]: 0.164

MDWCPRYLWHVCFN (on phage (pIII fusion)) [Phage-239 clonal phage peptide]
CD28 scFv signal [1]: 2.6
CD28 scFv signal in presence of CD28 [2]: 0.409

MDWCPRYLWTECFS (on phage (pIII fusion)) [Phage-303 clonal phage peptide]
CD28 scFv signal [1]: 2.42
CD28 scFv signal in presence of CD28 [2]: 0.329

MDWCPRTLWHVCFN (on phage (pIII fusion)) [Phage-240 clonal phage peptide]
CD28 scFv signal [1]: 2.6
CD28 scFv signal in presence of CD28 [2]: 0.551

MDWCPRHLWHVCFN (on phage (pIII fusion)) [Phage-264 clonal phage peptide]
CD28 scFv signal [1]: 2.67
CD28 scFv signal in presence of CD28 [2]: 0.636

MDWCPRDLWTECFS (on phage (pIII fusion)) [Phage-305 clonal phage peptide]
CD28 scFv signal [1]: 2.4
CD28 scFv signal in presence of CD28 [2]: 0.174

MDWCPRYLWHECFS (on phage (pIII fusion)) [Phage-235 clonal phage peptide]
CD28 scFv signal [1]: 2.65
CD28 scFv signal in presence of CD28 [2]: 0.303

MDWCPRSLWHVCFN (on phage (pIII fusion)) [Phage-258 clonal phage peptide]
CD28 scFv signal [1]: 2.41
CD28 scFv signal in presence of CD28 [2]: 0.238

MDWCPRYLWHVCFY (on phage (pIII fusion)) [Phage-291 clonal phage peptide]
CD28 scFv signal [1]: 2.5
CD28 scFv signal in presence of CD28 [2]: 1.14

MDWCPSYLWHECFF (on phage (pIII fusion)) [Phage-237 clonal phage peptide]
CD28 scFv signal [1]: 2.61
CD28 scFv signal in presence of CD28 [2]: 0.447

MDWCPRYLWHECFF (on phage (pIII fusion)) [Phage-301 clonal phage peptide]
CD28 scFv signal [1]: 2.45
CD28 scFv signal in presence of CD28 [2]: 0.682

MDWCPRYLWHVCFD (on phage (pIII fusion)) [Phage-302 clonal phage peptide]
CD28 scFv signal [1]: 2.44
CD28 scFv signal in presence of CD28 [2]: 0.31

MDWCPRYLWHECFD (on phage (pIII fusion)) [Phage-244 clonal phage peptide]
CD28 scFv signal [1]: 2.07
CD28 scFv signal in presence of CD28 [2]: 0.177

MDWCPRHLWSVCFN (on phage (pIII fusion)) [Phage-255 clonal phage peptide]
CD28 scFv signal [1]: 2.65
CD28 scFv signal in presence of CD28 [2]: 0.825
